± gives the uncertainty stated by the source.
Assay: protein stability index of a GFP-peptide fusion (yeast GPS) (PSI 1-4); higher = more stable; sorted into four equal gates, so the index is relative within each strain
Summary of the method: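 The protein stability index combines read frequencies across sorting gates, each weighted by its gate number and then summed. To obtain those frequencies, a pooled yeast library of GFP fusions to tiled 17-residue yeast protein peptides, on a plasmid also expressing Cherry, was grown to mid-log phase in leucine-free medium. The cells were sorted into four equal gates by GFP/Cherry ratio before plasmid amplification by PCR and Illumina sequencing.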

Row | Sequence | protein stability index (doa10∆) | protein stability index (pdr5∆) | protein stability index (san1∆) | protein stability index (ubr1∆)
1 | ARENAPSIIFIDEVDSI [RPT3] | 2.75 ± 0.14 | 2.46 ± 0.11 | 2.74 ± 0.06 | 2.41 ± 0.066
2 | SNGGGKVKPIRGFCQRL [RPO31] | 2.94 ± 0.13 | 3.12 ± 0.11 | 3.09 ± 0.097 | 3.25 ± 0.065
3 | NDRNPRLNENKKIGCYM [CSN12] | 3.04 ± 0.069 | 3.22 ± 0.072 | 3.12 ± 0.051 | 3.26 ± 0.065
4 | RITDASLFQLSKLGKNL [GRR1] | 2.38 ± 0.045 | 2.55 ± 0.05 | 2.12 ± 0.061 | 2.51 ± 0.036
5 | RTLRRKGDINPEVSMIR [RPB2] | 3.11 ± 0.16 | 3.39 ± 0.13 | 2.79 ± 0.21 | 3.12 ± 0.076
6 | TEVRAEDEAALAKLVST [RPL8A] | 2.9 ± 0.062 | 2.93 ± 0.06 | 2.59 ± 0.055 | 2.74 ± 0.048
7 | LLIRSKTEDPKGGIIAS [YML031W/NDC1] | 2.37 ± 0.14 | 2.36 ± 0.085 | 2.28 ± 0.085 | 2.66 ± 0.17
8 | SAAASESDVAKQLASFG [RPL16B] | 2.76 ± 0.048 | 2.83 ± 0.042 | 2.44 ± 0.057 | 2.42 ± 0.027
9 | EERMGQIENLNEVCLEK [SMC4] | 3.48 ± 0.28 | – | 2.47 ± 0.27 | –
10 | KPVYKGKKLTDEINTAQ [RET1] | 2.92 ± 0.12 | 2.99 ± 0.094 | 2.75 ± 0.084 | 3.2 ± 0.077
11 | IIFNYVPGPGTKLIQYE [CSL4] | – | 2.99 ± 0.1 | – | 2.84 ± 0.098
12 | SPVSSVHTANFSERGSN [MED2] | 2.71 ± 0.083 | 2.82 ± 0.068 | 2.53 ± 0.072 | 2.86 ± 0.044
13 | NGVPGQALDAVRMRLAQ [MED8] | 1.38 ± 0.067 | 1.39 ± 0.063 | 1.25 ± 0.1 | 1.26 ± 0.047
14 | WTMRIEGRLLDNVQAND [SNF12] | 2.48 ± 0.09 | 2.96 ± 0.096 | 2.7 ± 0.065 | 2.93 ± 0.047
15 | AIMSKSSLEELLLKDQQ [ECM29] | 2.83 ± 0.09 | 2.93 ± 0.073 | 2.83 ± 0.1 | 2.98 ± 0.05
16 | AVVQTVKGLLNTYKRLV [YJL039C/NUP192] | 1.8 ± 0.11 | 2.37 ± 0.085 | 1.92 ± 0.14 | 2.45 ± 0.083
17 | FVQLCEMGYLIQISKLH [RPC82] | 1.74 ± 0.05 | 1.95 ± 0.064 | 1.77 ± 0.1 | 1.96 ± 0.058
18 | KKFGGKGARSRFQKSYR [RPS16A] | 3.29 ± 0.12 | 3.27 ± 0.097 | 3.27 ± 0.072 | 3.32 ± 0.079
19 | NFNLKPTKTLTTKERKK [PRP8] | 1.98 ± 0.049 | 2.54 ± 0.074 | 2.19 ± 0.075 | 2.12 ± 0.041
20 | NYELEKIADNISKDENE [YDL116W/NUP84] | 3.03 ± 0.09 | 3.04 ± 0.077 | 2.98 ± 0.048 | 3.14 ± 0.055
21 | KSITLKGRNNESNNKKY [YDL088C/ASM4] | 3.19 ± 0.086 | 3.11 ± 0.066 | 3.13 ± 0.059 | 3.08 ± 0.064
22 | VLVKWTRTIKQNNFHVL [RGR1] | – | 1.3 ± 0.27 | – | –
23 | VSSLPGSTDKSLDFLNQ [COR1] | 3.45 ± 0.18 | – | 3.02 ± 0.28 | –
24 | KYLDQVLDHQRAIPFRR [RPL17B] | 2.78 ± 0.12 | 2.35 ± 0.076 | 1.87 ± 0.13 | 1.61 ± 0.066
25 | LPMDTNLFKINSIDVPI [YMR129W/POM152] | 1.98 ± 0.048 | 1.92 ± 0.035 | 2.49 ± 0.062 | 1.95 ± 0.045
26 | VPQGKIVALTNAKDKER [SMC3] | 2.77 ± 0.1 | 2.84 ± 0.14 | 2.83 ± 0.15 | 3.02 ± 0.092
27 | LAINAKTITSGLKYALA [RPB2] | 2.65 ± 0.057 | 2.83 ± 0.073 | 2.4 ± 0.061 | 2.79 ± 0.044

Row | Sequence | protein stability index (doa10∆) | protein stability index (pdr5∆) | protein stability index (san1∆) | protein stability index (ubr1∆)
28 | YKLVNKNKENNTFTWNH [RPN4] | 2.65 ± 0.23 | 3.49 ± 0.27 | 3.09 ± 0.082 | 3.12 ± 0.21
29 | YSFGGLLMRLEGNYRNL [RPB8] | 1.8 ± 0.12 | 2.55 ± 0.12 | 3.06 ± 0.17 | 2.56 ± 0.088
30 | NLSQENDNEGKHISASI [YAR002W/NUP60] | 3.04 ± 0.075 | 3.34 ± 0.06 | 3.13 ± 0.054 | 3.12 ± 0.044
31 | LTGNQLPTPTPTEMEPD [SWI1] | 2.67 ± 0.051 | 2.92 ± 0.052 | 2.51 ± 0.062 | 2.85 ± 0.03
32 | TNVYSKDLVIVSNLMGR [RPB3] | 3.04 ± 0.073 | 2.97 ± 0.059 | 2.96 ± 0.051 | 2.79 ± 0.04
33 | SFQKIPLSRINENENFG [YML103C/NUP188] | 2.88 ± 0.15 | 3.12 ± 0.097 | 2.97 ± 0.079 | 3.24 ± 0.1
34 | DIFAVNLEESSKLDIYT [RET1] | 2.98 ± 0.097 | 2.78 ± 0.081 | 2.72 ± 0.087 | 3 ± 0.08
35 | SEVGDAFIFGLQDELKE [SMC3] | 3.2 ± 0.067 | 3.31 ± 0.061 | 3.1 ± 0.057 | 3.25 ± 0.072
36 | KSVKFVQGLLQNAAANA [RPL17A] | 2.56 ± 0.065 | 2.65 ± 0.068 | 2.28 ± 0.05 | 2.46 ± 0.034
37 | SGTTNFMRNGLLEGLNE [UBP6] | 2.73 ± 0.21 | 2.87 ± 0.14 | 3.22 ± 0.17 | 3.45 ± 0.23
38 | NLKEYNKFMSIFLKRKD [SRB8] | 1.64 ± 0.06 | 2.22 ± 0.12 | 2.83 ± 0.078 | 1.88 ± 0.096
39 | FNGIENQSAYEWNGKSF [ISW2] | 3.09 ± 0.12 | 3.25 ± 0.2 | 3.31 ± 0.076 | 3.22 ± 0.12
40 | KNMGLVPMKEENLEESF [SSN2] | 3.07 ± 0.2 | 3.38 ± 0.13 | 2.95 ± 0.17 | –
41 | TSKWLNSITSGGLKSCD [YDL116W/NUP84] | 2.94 ± 0.097 | 3.17 ± 0.089 | 3.42 ± 0.078 | 2.7 ± 0.052
42 | DDFFKELAKEAKKSTTI [ESC2] | 3.17 ± 0.12 | 3.09 ± 0.12 | 2.97 ± 0.094 | 3.36 ± 0.091
43 | QAQAQVYAQQSTVQTPI [PGD1] | 2.8 ± 0.052 | 2.91 ± 0.055 | 2.83 ± 0.048 | 2.95 ± 0.059
44 | QFLQLDNDGFSFLMRQF [ECM29] | 1.33 ± 0.042 | 1.54 ± 0.061 | 1.45 ± 0.072 | 1.83 ± 0.051
45 | FRPIEIFTDFLPSSNGS [RRP42] | 2.19 ± 0.065 | 3.07 ± 0.08 | 3.09 ± 0.056 | 2.87 ± 0.063
46 | EVWSVSWNLTGTILSSA [YGL100W/SEH1] | 1.7 ± 0.07 | 1.5 ± 0.083 | 1.33 ± 0.15 | 1.63 ± 0.061
47 | QLEYKRGEIREIEQVCK [MED7] | 1.49 ± 0.11 | 1.53 ± 0.069 | 2.2 ± 0.18 | 1.45 ± 0.07
48 | PIGEAGDFGGWFCPCHG [RIP1] | 2 ± 0.1 | 1.97 ± 0.05 | 2.87 ± 0.08 | 3.18 ± 0.075
49 | HDELIDSIPRDVAYLLK [YGL172W/NUP49] | 2.49 ± 0.12 | 2.82 ± 0.13 | 2.89 ± 0.055 | 3.05 ± 0.095
50 | MSNDPGNEVSSLYPPPP [MED7] | 3.21 ± 0.1 | 2.92 ± 0.071 | 2.69 ± 0.082 | 3.08 ± 0.062
51 | ASSKAVTRGISVLKDSD [PRE1] | 2.4 ± 0.058 | 2.76 ± 0.05 | 2.89 ± 0.051 | 2.67 ± 0.052
52 | SSLRNQELLNAETLCFT [RPN3] | 2.89 ± 0.11 | 3.02 ± 0.15 | 3.22 ± 0.065 | 3.11 ± 0.091
53 | FYKLNMPDEFNTLYTAI [SRP72] | 2.5 ± 0.05 | 2.64 ± 0.053 | 2.66 ± 0.034 | 2.65 ± 0.043
54 | SNLEKLPKYKEKKAASA [MED7] | 2.14 ± 0.06 | 2.82 ± 0.06 | 2.83 ± 0.06 | 2.25 ± 0.057

— the supplement of paper PMC9732359
